Measured values taken from the supplement of paper PMC9170038.

test system: MS2 coat protein; test: apparent KD of MS2 coat protein; higher = weaker reporter binding; conditions: Eterna round: R107; input ligand: none
In short: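 With or without constant ligand, designed RNA switches in 100 mM Tris-HCl pH 7.5, 80 mM KCl and 4 mM MgCl2 were titrated with SNAP-549-labelled MS2 coat protein. Concentrations went up in twofold steps from 0.7 or 1.5 nM to 3 µM. The switches had been transcribed on-chip from Illumina sequencing clusters, and apparent KD is the per-design median of normalised cluster binding-curve fits.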

| Sequence | apparent KD of MS2 coat protein [µM] |
| --- | --- |
| ACAUGAGGAUCACCCAUGUAAUUAACAGAAGGAGCGUGAUGGAUCACAGGUAGGUCGCUGUACUUAGAAAUAACUCUCAUGAAUA [JR_Nu_SSArginiA_Sub024] | 0.0182 |
| AGUUGCGUUGGAAGGAGCGGCAUGUGUGGGCCUCCUUACAAUACAUGAGGAUCACCCAUGUGCCAGGUAGGUCGCCAACACAGGU [Tiedmaqu] | 0.0402 |
| UUUUUCGCGGGCGAUACCAGCUUGAUCGUACUGGCCUGGUACAUGAGGAUCACCCAUGUAAGCCCUUGGCAGCGCGCGGGAGAAG [Exclusion - Theophylline B Attempt #1 (HarryS)] | 0.0127 |
| ACACAUGAGGAUCACCCAUGUGCGCUGGAAGGAGCGCAGAAUCAUGCAGGUAGGUCGCCAGUGCCCAUUACUAGAGGGAUAAGAG [Onriri] | 0.0758 |
| ACAUUUAACUGAAGGAGCGUGAUAUGUACAUGAGGAUCACCCAUGUCUUACAUGUGAUAUUCACAGGUAGGUCGCAGACUAAUGA [JR_ExcArginiB_Sub004] | 0.0188 |
| ACAUGAAGAACAGCGGUGGGCGCGCUCGAUACCAGUACUUUGAAAUACCCUUGGCAGCGACAUGAGGAUCACCCAUGUGAGAUGA [XTheo A #3] | 0.0166 |
| UGAUGGUACGGAAGGAGCGUGUAAGAACAAGAACAUGAGGAUCACCCAUGUAUUAAUUUAACACAGGUAGGUCGCCGAGUUAUUG [11.G] | 0.0173 |
| CUGUACAUCUCGGCCGCCACUGACAUGAGGAUCACCCAUGUAGUGCCGAUGAGAGACUUAUCGGCCAGGACCGGGAGGUGUGCAG [SSTryp B #32] | 0.00994 |
| GGACUAACCAGAAGGAGCGACACGCAGAAACUGCAAAUUCCUCUGCACGAGGAUCACCCGUGUCAGGUAGGUCGCUGGUUAGUCG | 0.0274 |
| GCACGACAUGAGGAUCACCCAUGUGCAGAUACCAGUAGGAUAUCCUACCCUUGGCAGCUGAGUAGAUCUGGAGGACUAUAGGUAA [Same State Theophylline A GF9] | 0.0179 |
| ACAUGAGGAUCACCCAUGUAUUACCGGGAAGGAGCGGCCGGAAGGCCAGGUAGGUCGCUCGGCGUCGUGCUGUAAAGCACGACGA [#1 Same State - Arginine A Attempt #27 (HarryS)] | 0.014 |
| AAACGACAUGAGGAUCACCCAUGUGCCGAUACCAGCCGGAUAUACGGCCCUUGGCAGCGGAGUAAAUCCGGAGGACAAUGGGUAA [Same State Theophylline A GF6] | 0.057 |
| AAUUGGCACUGAAGGAGCGAGUUUACCUAAAUAACAUGAGGAUCACCCAUGUAAAAUGGGACUCAGGUAGGUCGCAGUUGUCAAA [Same State Arginine B GF 22] | 0.0576 |
| AAAACAAACUCGGCCGCCACUCCCUCCCACCCAAGGACAUGAGGAUCACCCAUGUGGCAAAGCCCGAGGACCGGGAGAAACAAAA [Same State - Trytophan B] | 0.0222 |
| AUGUAGAACCGAAGGAGCGCGAUAACAUGAGGAUCACCCAUGUAGCUUUGGUGGCCUCGAUCGCAGGUAGGUCGCGGAAGUAGUA [Exclusion - Arginine B / A] | 0.102 |
| AUGCAUAGCGGAAGGAGCGCAAUAGAAUGACAUGAGGAUCACCCAUGUAUGUGAUGUGGGUUGCAGGUAGGUCGCCGAGUGGUAU [Exclusion - Arginine B (Freestyle 1)] | 0.0605 |
| CUUGAUAACUGAAGGAGCGAGAAACCCUACAUGAGGAUCACCCAUGUAUACACGGGAACUUCUCAGGUAGGUCGCAGUAUGUCAA [Teveor] | 0.0544 |
| UGUAUGGAAACAUGAGGAUCACCCAUGUGGCGAGGACCGGUACGGCCGCCACUCGAGCAGCAAGCGUGUAUGACGCUGCUGCAUG [SS-trypA-0] | 0.0409 |
| CAUAUAUAUAGAAGGAGCGUCGAAAAUGGGUAAACAUGAGGAUCACCCAUGUAAAGGGAACGACAGGUAGGUCGCUAUAUAUAUG [AstromonsSSArgB#3] | 0.161 |
| AAUAAACAUGAGGAUCACCCAUGUAUGGAAGGAGCGGUGAAUAAACCAGGUAGGUCGCCAGUGUGAGGGUCAUCUAUGUAAUCAA [Exclusion - Arginine A (Freestyle 3)] | 0.0421 |

same assay, conditions: Eterna round: R107; input ligand: theophylline 20 uM

| Sequence | apparent KD of MS2 coat protein [µM] |
| --- | --- |
| CUCUUCCGGAAGGAUACCAGCUACAUGAGGAUCACCCAUGUAGGAGCGGGUUUCUAAUGUAGCCCUUGGCAGCCUUAGCCCGUCG [Querarra] | 0.0365 |
| CCGUAGCUAGGAAGGAGCGCAUACUUCACAUGAGGAUCACCCAUGUCGAGACGUGAGUCAGUGCAGGUAGGUCGCCUAGCUAUGG [Same State - Arginine B (Freestyle 28)] | 0.0264 |
| UGUCAGCGAAAGUUGACAUGUCUUACCGGUCGAGGACCGGUACGGCCGCCACUCGAUCUCUCGCACAUGAGGAUCACCCAUGUCG [SS Tryp A #17] | 0.0154 |
| ACAUGAGGAUCACCCAUGUAAUUAACAGAAGGAGCGUGAUGGAUCACAGGUAGGUCGCUGUACUUAGAAAUAACUCUCAUGAAUA [JR_Nu_SSArginiA_Sub024] | 0.0276 |
| GGAGUAGGAAACUAUUCCAAUCCUCGUGAACGAGGACCGGUACGGCCGCCACUCGAUAAAUAAAUACAUGAGGAUCACCCAUGUA [Ex Tryptophan A 22] | 0.0289 |
| AGUUGCGUUGGAAGGAGCGGCAUGUGUGGGCCUCCUUACAAUACAUGAGGAUCACCCAUGUGCCAGGUAGGUCGCCAACACAGGU [Tiedmaqu] | 0.0798 |
| UGACAUUGCUGCGAUACCAGACAUGAGGAUCACCCAUGUGCCAAAUAAACGUACAUAAAUGUCCCUUGGCAGCGCAGCAAUGUCU [MAT - Exclusion Theophlline B - Mod of Eli - D29] | 0.112 |
| UUUUUCGCGGGCGAUACCAGCUUGAUCGUACUGGCCUGGUACAUGAGGAUCACCCAUGUAAGCCCUUGGCAGCGCGCGGGAGAAG [Exclusion - Theophylline B Attempt #1 (HarryS)] | 0.0146 |
| ACACAUGAGGAUCACCCAUGUGCGCUGGAAGGAGCGCAGAAUCAUGCAGGUAGGUCGCCAGUGCCCAUUACUAGAGGGAUAAGAG [Onriri] | 0.101 |
| ACAUGAGGAUCACCCAUGUCUGCCACUGAUACCAGCGGAAGCCAACGCCCUUGGCAGCAGAACAUGAGGAUCACCCAUGUAGGCA [Same State Theophylline A GF26] | 0.18 |
| ACAUUUAACUGAAGGAGCGUGAUAUGUACAUGAGGAUCACCCAUGUCUUACAUGUGAUAUUCACAGGUAGGUCGCAGACUAAUGA [JR_ExcArginiB_Sub004] | 0.0232 |
| ACAUGAAGAACAGCGGUGGGCGCGCUCGAUACCAGUACUUUGAAAUACCCUUGGCAGCGACAUGAGGAUCACCCAUGUGAGAUGA [XTheo A #3] | 0.0256 |
| UGAUGGUACGGAAGGAGCGUGUAAGAACAAGAACAUGAGGAUCACCCAUGUAUUAAUUUAACACAGGUAGGUCGCCGAGUUAUUG [11.G] | 0.0267 |
| CUGUACAUCUCGGCCGCCACUGACAUGAGGAUCACCCAUGUAGUGCCGAUGAGAGACUUAUCGGCCAGGACCGGGAGGUGUGCAG [SSTryp B #32] | 0.0101 |
| GGACUAACCAGAAGGAGCGACACGCAGAAACUGCAAAUUCCUCUGCACGAGGAUCACCCGUGUCAGGUAGGUCGCUGGUUAGUCG | 0.0355 |
| GCACGACAUGAGGAUCACCCAUGUGCAGAUACCAGUAGGAUAUCCUACCCUUGGCAGCUGAGUAGAUCUGGAGGACUAUAGGUAA [Same State Theophylline A GF9] | 0.023 |
| AGUGUAUCCAUCGAUACCAGCCACAACGUAACAUACACAUGAGGAUCACCCAUGUUGUGUGGCCCUUGGCAGCGGUGCCUGUGUA [Same State - Theophylline B Attempt #1 (HarryS)] | 0.0164 |
| CAUCAUGGGCUUGGACAAAUUGUGCUUGAUACCAGAAAUCACCGGUUCCCUUGGCAGCAACCCACAUGAGGAUCACCCAUGUGGA [theeternabot_exclusion_MS2_Theo_A_4] | 0.0201 |
| UAGAAGAACAUGCGGGCUCCGGACGGUGAUACCAGAUCGAAAAGGAUCCCUUGGCAGCACUGCACAUGAGGAUCACCCAUGUGCA [theeternabot_exclusion_MS2_Theo_A_7] | 0.011 |
